According to patent US9981005 (dated 2018):
Read-outs that look alike come from different tables or passages of the source. Where no end group is shown, it is not given here. [ ]: non-standard residue; d: D form. pT = C[C@@H](OP(=O)(O)O)[C@H](N)C(=O)O; pS = N[C@@H](COP(=O)(O)O)C(=O)O; Flu = fluorescein

B1: Flu-VPPpTPPGpSH (doubly phosphorylated fluorescein-tagged DISC1 phosphodegron peptide) (peptide)
peptide: Flu-VPP[pT]PPG[pS]H
B2: Flu-VPPpTPPGSH (singly phosphorylated fluorescein-tagged DISC1 phosphodegron peptide) (peptide)
peptide: Flu-VPP[pT]PPGSH
B3: Cyclin E (test agent of the FP assay) (other)
chain: AKKAMLSEQNRASPLPSGLLTPPQSGKKQSS

What was measured:
[1] = biological target: T1, Skp1-FBXW7 complex (human FBXW7 residues 263-707 with truncated Skp1) (UniProt P63208 1-163)
[2] = biological target: T1, Skp1-FBXW7 complex (human FBXW7 …); experiment: fluorescence polarisation

Binder | Kd [1] [nM] | Kd [2] [nM]
B1 | 1200 | 
B2 | 2300 | 
B3 |  | 2000
